In test [1] the target is PD-L1 on PD-L1 aAPC/CHOK1 cells (Promega J1250). As to the kind of experiment: cell-based or functional assay.
Test [2] has as its target T1, human PD-L1-Fc (human, UniProt Q9NZQ7 19-238).
T1 construct: also called recombinant PD-L1-Fc fusion protein
Description: SPR, PD-L1-Fc captured, scFv analyte. On the procedure:
The assay was run with Biacore T200 control software version 2.0. Anti-human Fc antibody was immobilized on flow cell 1 and 2 of CM5 sensor chip. […] The flow cells were then regenerated with antibody regeneration buffer (GE Healthcare) for 30 seconds at flow rate of 30 μl/min.
(§1) The production, the binding, and all of the characterization assays for selected affinity matured scFv clones were performed as described above.
In general terms: Surface plasmon resonance follows binding to a sensor surface in real time, without labels.

The target of test [3] is T2, PD-L1 biotinylated (PD-1/PD-L1 TR-FRET assay kit, BPS 72038) (Homo sapiens (Human), UniProt Q9NZQ7 19-238, biotinylated; site not stated).
T2 construct: Kit reagent
As to the kind of experiment: HTRF PD-1/PD-L1 competition (PD-1-Eu and biotinylated PD-L1), % activity; blocked ligand PD-1-Eu. On the procedure:
(§2) Briefly, 1× Immuno buffer 1 was made. […] For each well in 384-well plate, serial diluted scFvs and regents were added according to manufacturer's recommended volume. Samples were incubated at room temperature for 1.5 hours then the fluorescent intensity was read with Biotek Neo2 plate reader using manufacture's instrument setting for the assay.
as §1
For orientation: Time-resolved FRET reads energy transfer from a long-lived donor to a nearby acceptor.

In test [4] the target is T3, full-length human PD-L1 on K562 cells (human, UniProt Q9NZQ7 19-290).
T3 construct: also called PD-L1/K562; cell surface human PD-L1
Description: FACS, PD-L1/K562 cells. On the procedure:
(§3) Cells were spun down at 1200 rpm for 5 minutes at 4° C. to remove primary antibodies. Cells were then washed once with 200 μL of full medium per well. […] Samples were spun down at 1200 rpm for 5 minutes at 4° C. and washed twice with 200 μL of 1×PBS per well. Samples were reconstituted in 200 μL of 1×PBS and were read on Attune NxT cytometer.
as §1
Background: A flow cytometer gives signals particle by particle.

Test [5] addresses T1, human PD-L1-Fc. Description: ELISA, coated PD-L1-Fc, anti-FLAG HRP. On the procedure:
(§4) The plate was incubated overnight at 4° C. followed by blocking with 80 μL of superblock per well for 1 hour. […] In between each step, the plate was washed 3 times with 1×PBST in a plate washer. The plate was then developed with 20 μL of TMB substrate for 5 min and stopped by adding 20 μL of 2N sulfuric acid. The plate was read at OD450 nm Biotek plate reader and then plotted in Prism 8.1 software.
as §1

Test [6] has as its target T4, human PD-L1-HIS tagged recombinant protein (human, UniProt Q9NZQ7 19-238).
T4 construct: also called hPD-L1-HIS; PD-L1 HIS tagged protein
As to the kind of experiment: SPR, Protein A capture, PD-L1-HIS analyte. On the procedure: (§5) The assay was run with Biacore T200 control software version 2.0. For each cycle, 1 μg/mL of anti-hPD-L1/IL-2 was captured for 60 seconds at flow rate of 10 μL/min on flow cell 2 in 1×HBSP buffer on Protein A sensor chip. […] The flow cells were then regenerated with Glycine pH2 for 60 seconds at flow rate of 30 μL/min. […] The specific binding response unit was derived from subtraction of binding to reference flow cell 1 from antibody captured flow cell 2.

The target of test [7] is T5, recombinant His-tagged human IL-2Rβ (human, UniProt P14784 27-240, limits assumed).
T5 construct: also called IL-2Rβ-HIS; IL-15Rβ-HIS
T5 sequence (looked up): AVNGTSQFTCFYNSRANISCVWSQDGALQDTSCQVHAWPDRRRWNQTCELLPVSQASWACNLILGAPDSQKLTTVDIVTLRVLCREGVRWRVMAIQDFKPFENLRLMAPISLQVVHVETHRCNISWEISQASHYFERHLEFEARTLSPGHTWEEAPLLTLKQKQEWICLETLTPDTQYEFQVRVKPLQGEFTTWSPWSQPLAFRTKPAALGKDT
Description: SPR, Protein A capture, IL-2Rβ-HIS analyte. The method, then: as §5

Test [8] concerns the target T6, recombinant His-tagged human IL-2Rα (human, UniProt P01589 22-213, limits assumed).
T6 construct: also called IL-2Rα-HIS; CD25
T6 sequence (looked up): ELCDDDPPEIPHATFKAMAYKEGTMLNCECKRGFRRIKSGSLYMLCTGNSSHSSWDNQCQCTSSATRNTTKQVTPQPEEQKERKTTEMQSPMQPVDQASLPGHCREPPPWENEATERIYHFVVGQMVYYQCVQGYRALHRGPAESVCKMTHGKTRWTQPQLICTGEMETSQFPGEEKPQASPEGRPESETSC
Description: ELISA, coated His-tagged human IL-2Rα, OD 450 nm. The method, then: (§6) For monovalent IL-2 Fc-fusion proteins, recombinant His-tagged human IL-2Rα and IL-2Rβ were added in 25 μL of 1×PBS to wells of 384-well plate and incubated overnight at 4° C. to coat the plates. Plates were washed three times with 0.05% Tween20/1×PBS. Plates were blocked with 100 μL of SuperBlock for 1 hr at RT and then washed 3 times with 0.05% Tween20/1×PBS. IL-2 mutants were diluted in 0.05% Tween 20/1×PBS from 1000 nM to 0 nM and added to plates for 2 hrs at room temperature. Plates were then washed 6 times with 0.05% Tween20/1×PBS. Anti-HisTag-HRP was diluted 1:5000 in 0.05% Tween20/1×PBS and added to plates for 1 hr at RT. Plates were then washed 6 times with 0.05% Tween 20/1×PBS, and TMB was added to develop blue color. Reactions were stopped with 2N […] and light absorbance at 450 nm was read on a BioTek plate reader. Absorbance versus IL-2 concentration is graphed for human IL-2Rα and IL-2Rβ.
A 384 well plate was immobilized with anti-human Fc at final concentration of 2 μg/mL in 1×PBS in total volume of 25 μL per well. The plate was incubated overnight at 4C followed by blocking with 80 μL of superblock per well for 1 hour. […] In between each step, the plate was washed 3 times with 1×PBST in a plate washer. […] The plate was read at OD450 nm Biotek plate reader and the binding correlation was plotted with Prism 8.1 software. […]

Another test concerns the target biotinylated PD-L1 (Homo sapiens (Human), UniProt Q9NZQ7 19-238, biotinylated; site not stated). As to the kind of experiment: ELISA, anti-human Fc capture, biotinylated PD-L1. The method, then: A 384 well plate was immobilized with anti-human Fc at final concentration of 2 μg/mL in 1×PBS in total volume of 25 μL per well. The plate was incubated overnight at 4C followed by blocking with 80 μL of superblock per well for 1 hour. […] In between each step, the plate was washed 3 times with 1×PBST in a plate washer. The plate was then developed with 25 μL of TMB substrate for 5 min and stopped by adding 25 μL of 2N sulfuric acid. The plate was read at OD450 nm Biotek plate reader and the binding correlation was plotted with Prism 8.1 software. The ELISA binding assays of the antibodies to IL-2Rα and IL-2Rβ receptors were performed as described in Example 6.

Test [9] concerns the target T5, recombinant His-tagged human IL-2Rβ. Description: ELISA, coated His-tagged IL-2Rβ. On the procedure: as §6, with “IL-2Rβ. […]” for “IL-2Rβ.”
Test [10] shares this target. Description: SPR, Protein A capture, IL-2Rβ-HIS analyte, steady state affinity. On the procedure:
as §5

In test [11] the target is PD-L1 on PD-L1 aAPC/CHOK1 cells (Promega J1250). Description: cell-based or functional assay. The source holds these as a separate data set.
Test [12] concerns the target T2, PD-L1 biotinylated (PD-1/PD-L1 TR-FRET …). As to the kind of experiment: HTRF competition, competitor PD-1-Eu. The method, then: as §2
Test [13] addresses T1, human PD-L1-Fc. As to the kind of experiment: SPR, PD-L1-Fc captured, scFv analyte; exponent sign missing in print, value set to E-03 from the same row's KD x kon.
Test [14] addresses PD-L1 on PD-L1 aAPC/CHOK1 cells (Promega J1250). Description: cell-based or functional assay. The source holds these as a separate data set.
Test [15] deals with T1, human PD-L1-Fc. Description: ELISA, coated PD-L1-Fc, anti-FLAG HRP. The method, then:
as §4
This is another data set of the same source.

Test [16] concerns the target T3, full-length human PD-L1 on K562 cells. Description: FACS, PD-L1/K562 cells. The method, then: as §3
The source holds these as a separate data set.

For orientation: Kd means the equilibrium constant for the complex coming apart. Usually koff stands for the rate constant with which the complex falls apart. By kon is commonly meant a measure of how fast the partners come together. One may read the EC50 as the midpoint of the concentration-response curve. One may read the IC50 as the concentration that gives 50% inhibition.

Like-named read-outs stand apart in the source and are kept apart here.

B1: 2019EP69-F03 scFv (scFv, not shown: small tags and cut ends)
scFv: QVQLVQSGAEVKKPGSSVKVSCKASGGTFSSYAISWVRQAPGQGLEWMGGIIPIFGTANYAQKFQGRVTITADESTSTAYMELSSLRSEDTAVYYCARDKWYGSAWRGDYWGQGTLVTVSSGGGGSGGGGSGGGGSQSVLTQPPSASGTPGQRVTISCSGSYSNIGSNFVNWYQQLPGTAPKLLIHFNNQRPSGVPDRFSGSRSGTSASLAISGLQSEDEADYFCSTWDDSLKGPIFGGGTKLTVL
For the molecule B1, in [1], the “Jurkat NFAT reporter assay EC50” value came out at 123 nM. In the test with human PD-L1-Fc [2], this molecule displayed a Kd of 0.0797 nM, a koff of 9.87e-05 s⁻¹ and a kon of 1.24e+06 M⁻¹ s⁻¹. Further, the “IC50 (read off the curve)” value in [3] was around 100 nM. The EC50 in [4] was found to be 0.115 nM. The molecule further registered an EC50 with human PD-L1-Fc [5] of 0.696 nM.

B2: IL-2/anti-PD-L1 scFv Fc EP413/EP326 (bispecific antibody)
chain 1: not shown
chain 2: QVQLVQSGAEVKKPGSSVKVSCKASGGTFSSYAISWVRQAPGQGLEWMGGIIPIFGTANYAQKFQGRVTITADESTSTAYMELSSLRSEDTAVYYCARDKWYGSAWRGDYWGQGTLVTVSSGGGGSGGGGSGGGGSQSVLTQPPSASGTPGQRVTISCSGSYSNIGSNFVNWYQQLPGTAPKLLIHFNNQRPSGVPDRFSGSRSGTSASLAISGLQSEDEADYFCSTWDDSLKGPIFGGGTKLTVLDKTHTCPPCPAPEAAGGPSVFLFPPKPKDTLMISRTPEVTCVVVDVSHEDPEVKFNWYVDGVEVHNAKTKPREEQYNSTYRVVSVLTVLHQDWLNGKEYKCKVSNKALGAPIEKTISKAKGQPREPQVCTLPPSRDELTKNQVSLSCAVKGFYPSDIAVEWESNGQPENNYKTTPPVLDSDGSFKLVSKLTVDKSRWQQGNVFSCSVMHEALHNHYTQKSLSLSPGK
notes: IL2 EP001 carrying K35L/R38D/F42R
Consider B2, for which, in [6], the Kd was 0.507 nM, the off-rate (koff) is 0.000247 s⁻¹ and the kon was determined as 487000 M⁻¹ s⁻¹. Moreover, in test [7], the Kd worked out at 6.5 nM, the koff came to 0.0107 s⁻¹ and the kon came out at 1.65e+06 M⁻¹ s⁻¹. In [8], the binding result is listed as “no binding (tested: LOG(IL-2(nM)) 2 (100 nM))”. Also, the midpoint of the response with biotinylated PD-L1, the EC50, lay at 0.345 nM. For the same molecule, the EC50 in test [9] is 0.545 nM.

B3: IL-2/anti-PD-L1 scFv Fc EP418/EP326 (bispecific antibody)
chain 1: not shown
chain 2: B2 chain 2
notes: IL2 EP340
With B3, the figures for the Kd in [6] and in test [10] were 0.547 nM and 75.8 nM, respectively. Further, the “NFAT reporter EC50” value in [11] is 9.07 nM. Also, the midpoint of the response with biotinylated PD-L1, the EC50, lay at 0.287 nM. In test [12], this molecule returned a half-inhibitory concentration (IC50) of 346 nM.

B4: 2019EP69-C05 scFv (scFv, V domains shown)
VH: QVQLVQSGAEVKKPGSSVKVSCKASGGTFSSYAISWVRQAPGQGLEWMGGIIPIFGTANYAQKFQGRVTITADESTSTAYMELSSLRSEDTAVYYCARDKGYGSGFRGDYWGQGTLVTVSS
VL: QSVLTQPPSASGTPGQRVTISCSGSYSNIGSNFVNWYQQLPGTAPKLLIHFNNQRPSGVPDRFSGSRSGTSASLAISGLQSEDEADYFCSTWDDSLKGPIFGGGTKLTVL
In the test with human PD-L1-Fc [2], B4 registered a Kd of 2.58 nM and a kon of 1.76e+06 M⁻¹ s⁻¹. The molecule also yielded a koff in the test with human PD-L1-Fc [13] of 0.00454 s⁻¹. The EC50 in test [4] came out at 0.221 nM. The same molecule yielded an EC50 with human PD-L1-Fc [5] of 0.507 nM.

B5: 2018EP280-E01 scFv (scFv, V domains shown)
VH: EVQLVESGGGLVKPGGSLRLSCAASGLTFSNAWMSWVRQAPGKGLEWVGRIKSKTDGGTTEYAAPVKGRFTISRDDSKNTLYLQMSSLKTEDTAVYYCTIVYYYDSSGPVFFQHWGQGTLVTVSS
VL: QSVLTQPPSASATPGQRVTISCSGSDSNIATNYVYWYQQFPGTAPKLLIYRNHQRPSGVPDRFSGSRSGTSASLAISGLRSEDEADYYCATWDDSVNSWVFGGGTKLTVL
notes: not shown: scFv linker and domain order of the library scFv
In the case of B5, the “Jurkat NFAT reporter assay EC50” value in test [14] is 400 nM. For the same molecule, the EC50 in the test with human PD-L1-Fc [15] turned out to be 8.1 nM; in [16] it was 10.8 nM. In test [12], this molecule had an IC50 of 76.8 nM.

The values above are taken from patent publication US20250340646A1 (ELPIS BIOPHARMACEUTICALS, published 2025).
